Data set [1] addresses T1, FLAG-tagged GLI2, P10070.
T1 chain: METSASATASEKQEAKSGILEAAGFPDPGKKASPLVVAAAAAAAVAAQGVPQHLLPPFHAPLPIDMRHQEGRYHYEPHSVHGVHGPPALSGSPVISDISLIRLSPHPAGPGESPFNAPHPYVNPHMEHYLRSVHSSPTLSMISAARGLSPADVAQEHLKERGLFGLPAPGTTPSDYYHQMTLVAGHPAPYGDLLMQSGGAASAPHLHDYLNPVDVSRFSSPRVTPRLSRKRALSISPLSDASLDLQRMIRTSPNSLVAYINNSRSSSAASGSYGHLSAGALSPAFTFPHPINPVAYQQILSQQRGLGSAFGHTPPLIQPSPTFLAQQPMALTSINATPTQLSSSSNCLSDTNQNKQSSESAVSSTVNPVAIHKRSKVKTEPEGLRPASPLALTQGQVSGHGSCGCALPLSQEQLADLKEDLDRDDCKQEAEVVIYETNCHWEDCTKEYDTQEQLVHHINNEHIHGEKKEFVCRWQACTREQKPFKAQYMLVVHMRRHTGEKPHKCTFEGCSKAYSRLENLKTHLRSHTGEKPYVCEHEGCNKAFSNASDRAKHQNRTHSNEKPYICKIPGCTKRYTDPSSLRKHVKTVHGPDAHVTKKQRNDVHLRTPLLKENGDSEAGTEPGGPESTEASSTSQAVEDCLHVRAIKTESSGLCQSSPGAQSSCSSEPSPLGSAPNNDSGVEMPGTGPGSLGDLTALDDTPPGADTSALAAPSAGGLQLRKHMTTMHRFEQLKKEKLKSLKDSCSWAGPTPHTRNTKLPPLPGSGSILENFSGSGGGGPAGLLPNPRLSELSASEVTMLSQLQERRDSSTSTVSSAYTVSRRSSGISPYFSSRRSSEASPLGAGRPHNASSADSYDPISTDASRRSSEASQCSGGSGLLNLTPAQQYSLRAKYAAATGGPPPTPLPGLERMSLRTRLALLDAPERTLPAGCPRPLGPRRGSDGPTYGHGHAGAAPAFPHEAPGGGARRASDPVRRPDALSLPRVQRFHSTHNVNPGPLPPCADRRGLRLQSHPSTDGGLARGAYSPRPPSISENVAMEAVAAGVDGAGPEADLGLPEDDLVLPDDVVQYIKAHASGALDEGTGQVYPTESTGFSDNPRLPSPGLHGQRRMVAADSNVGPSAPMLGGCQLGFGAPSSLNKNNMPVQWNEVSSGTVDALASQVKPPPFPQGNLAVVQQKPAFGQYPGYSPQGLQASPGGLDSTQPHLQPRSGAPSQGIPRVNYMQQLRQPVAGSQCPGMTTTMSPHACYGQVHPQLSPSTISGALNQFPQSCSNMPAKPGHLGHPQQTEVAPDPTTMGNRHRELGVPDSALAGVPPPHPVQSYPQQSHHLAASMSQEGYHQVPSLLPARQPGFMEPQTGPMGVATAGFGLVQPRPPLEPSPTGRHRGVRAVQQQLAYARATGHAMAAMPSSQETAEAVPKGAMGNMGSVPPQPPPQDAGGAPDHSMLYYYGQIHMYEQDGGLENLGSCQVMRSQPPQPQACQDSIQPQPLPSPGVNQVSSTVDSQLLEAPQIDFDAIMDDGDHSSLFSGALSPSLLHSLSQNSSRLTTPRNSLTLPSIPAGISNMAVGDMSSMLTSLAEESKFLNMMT

Data set [2] concerns the target T2, His-tagged GLI1 fragment, amino acids 726-1106.
T2 chain: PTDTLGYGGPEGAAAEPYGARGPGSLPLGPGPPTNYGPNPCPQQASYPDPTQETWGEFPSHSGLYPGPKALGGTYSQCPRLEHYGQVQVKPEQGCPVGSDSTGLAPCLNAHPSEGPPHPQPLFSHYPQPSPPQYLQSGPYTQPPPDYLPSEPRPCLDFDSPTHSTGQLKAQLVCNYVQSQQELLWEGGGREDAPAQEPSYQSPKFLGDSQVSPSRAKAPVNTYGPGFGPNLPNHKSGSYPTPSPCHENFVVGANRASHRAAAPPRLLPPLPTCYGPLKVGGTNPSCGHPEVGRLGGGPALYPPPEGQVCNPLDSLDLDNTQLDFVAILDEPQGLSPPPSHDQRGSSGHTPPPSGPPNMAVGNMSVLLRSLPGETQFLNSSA

Data set [3] addresses T3, FLAG-tagged GLI1 (full length).
T3 chain: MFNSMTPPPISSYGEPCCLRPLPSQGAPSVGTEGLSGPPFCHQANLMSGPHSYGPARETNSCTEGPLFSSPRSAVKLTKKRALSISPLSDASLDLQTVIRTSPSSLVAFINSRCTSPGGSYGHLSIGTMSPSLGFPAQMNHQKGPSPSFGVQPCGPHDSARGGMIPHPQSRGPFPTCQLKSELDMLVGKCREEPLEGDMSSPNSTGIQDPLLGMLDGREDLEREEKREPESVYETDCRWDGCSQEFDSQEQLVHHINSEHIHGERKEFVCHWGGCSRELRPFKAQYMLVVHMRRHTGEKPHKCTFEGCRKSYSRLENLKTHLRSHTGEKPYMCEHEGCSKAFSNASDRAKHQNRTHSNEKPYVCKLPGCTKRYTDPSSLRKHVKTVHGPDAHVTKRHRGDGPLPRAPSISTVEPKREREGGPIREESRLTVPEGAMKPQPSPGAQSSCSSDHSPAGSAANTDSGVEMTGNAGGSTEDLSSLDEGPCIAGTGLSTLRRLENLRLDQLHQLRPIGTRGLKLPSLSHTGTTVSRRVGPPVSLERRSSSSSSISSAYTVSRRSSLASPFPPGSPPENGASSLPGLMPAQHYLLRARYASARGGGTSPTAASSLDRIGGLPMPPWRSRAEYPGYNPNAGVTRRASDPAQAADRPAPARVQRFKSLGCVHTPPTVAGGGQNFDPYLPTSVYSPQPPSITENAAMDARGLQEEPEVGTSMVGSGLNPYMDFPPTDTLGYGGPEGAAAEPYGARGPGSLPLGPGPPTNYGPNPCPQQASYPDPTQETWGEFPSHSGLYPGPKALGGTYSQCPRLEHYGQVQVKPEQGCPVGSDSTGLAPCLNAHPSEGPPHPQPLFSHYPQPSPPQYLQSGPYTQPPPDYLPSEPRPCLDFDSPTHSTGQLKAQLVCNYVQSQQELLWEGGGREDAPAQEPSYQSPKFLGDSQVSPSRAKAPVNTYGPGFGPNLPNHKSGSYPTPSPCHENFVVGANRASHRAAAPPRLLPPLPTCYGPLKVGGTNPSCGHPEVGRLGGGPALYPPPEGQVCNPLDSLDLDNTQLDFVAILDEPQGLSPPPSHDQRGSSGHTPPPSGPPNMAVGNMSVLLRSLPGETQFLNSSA

B1: FLAG-tagged wild-type ULK3 (human serine/threonine kinase ULK3) (protein)
chain: MAGPGWGPPRLDGFILTERLGSGTYATVYKAYAKKDTREVVAIKCVAKKSLNKASVENLLTEIEILKGIRHPHIVQLKDFQWDSDNIYLIMEFCAGGDLSRFIHTRRILPEKVARVFMQQLASALQFLHERNISHLDLKPQNILLSSLEKPHLKLADFGFAQHMSPWDEKHVLRGSPLYMAPEMVCQRQYDARVDLWSMGVILYEALFGQPPFASRSFSELEEKIRSNRVIELPLRPLLSRDCRDLLQRLLERDPSRRISFQDFFAHPWVDLEHMPSGESLGRATALVVQAVKKDQEGDSAAALSLYCKALDFFVPALHYEVDAQRKEAIKAKVGQYVSRAEELKAIVSSSNQALLRQGTSARDLLREMARDKPRLLAALEVASAAMAKEEAAGGEQDALDLYQHSLGELLLLLAAEPPGRRRELLHTEVQNLMARAEYLKEQVKMRESRWEADTLDKEGLSESVRSSCTLQ
Turning to B1, the “in vitro kinase assay, phosphorylation signal (32P autoradiography)” value in data set [1] was “The strongest phosphorylation signal was detected in the case of GLI2”; in data set [3] it was “GLI1 and GLI3 were also phosphorylated by ULK3, but with significantly lower intensity as compared to GLI2”. Further, the “in vitro kinase assay, phosphorylation of a His-tagged GLI1 fragment” value in data set [2] was “Two of them-GLI1(1-433) and GLI1(726-1106)-were phosphorylated by ULK3”.

The values are drawn from patent US20130040894A1, “INHIBITION OR ACTIVATION OF SERINE/THREONINE ULK3 KINASE ACTIVITY” (TALLINN UNIVERSITY OF TECHNOLOGY, priority 2009, published 2013).
